Two molecules from paper doi:10.1101/2020.06.12.149534 (bioRxiv, 2020) can be followed below.

Test [1] addresses P113 N-terminal fragment D106K E107K, biotinylated bait (Plasmodium falciparum (3D7 strain)) (UniProt Q8ILP3). Nature of the test: SPR. On the technique in general: SPR reads the build-up and loss of mass on a sensor chip optically.
Test [2] deals with T1, P113 N-terminal fragment (P. falciparum 3D7), purified soluble analyte (Plasmodium falciparum 3D7, stabilised).
T1 chain: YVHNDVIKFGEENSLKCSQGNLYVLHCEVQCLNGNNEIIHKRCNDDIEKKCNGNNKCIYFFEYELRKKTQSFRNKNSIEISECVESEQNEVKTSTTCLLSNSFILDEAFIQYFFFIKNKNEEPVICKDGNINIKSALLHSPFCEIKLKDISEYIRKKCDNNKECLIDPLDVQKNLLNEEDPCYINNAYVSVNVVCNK
The test is described as follows: SPR.

In general, Kd refers to the concentration at which binding is half-saturated.

As for “purified monomeric RH5 protein (from UniProt Q8IFM5 25-526) (natural protein)”, in test [1], the fold reduction in dissociation half-life against wild-type P113 was found to be 2 fold.

B1: anti-P113 monoclonal antibody P3.2 (antibody, V domains shown)
VH: QVQLQQPGAELVKPGASVRLSCKASGYTFTSYFMYWVRQRPGQGLQSIGGINPNNGGSNFNERFKTKATLTVDKSSSIAYLQLNSLTSEDSAVYYCTRRGLGYDYGGFAYWGQGTLVTVSA
VL: DIQMTQTTSSLSASLGDRVTISCRASQDISNYLNWYQQKPDGTVKLLIYYTSRLHSGVSSRFSGSGSGTDYSLTIKNLEQEDIATYFCQQVNALPPTFGGGTKLEIK
In turn, B1 returned a dissociation constant Kd in test [2] of 320 nM.
